Results reported in publication PMC3907796, “The C-Terminal Region of G72 Increases D-Amino Acid Oxidase Activity” (International Journal of Molecular Sciences, 2013).
No end group written: not given here. *: point of attachment. Biotin = O=C1N[C@H]2[C@H](CS[C@H]2CCCCC(=O)*)N1

T1: BD-G72 (full-length G72 N-terminally tagged with the binding domain) (UniProt P59103 1-153)
T1 construct: probably pGBKT7; The BD fusion was detected with anti-c-Myc; also called full-length BD-G72; G72 isoform 1; source: yeast two-hybrid fusion, S. cerevisiae AH109; not shown: from the vector pGBDT7), N-terminal, kept
T1 sequence (looked up): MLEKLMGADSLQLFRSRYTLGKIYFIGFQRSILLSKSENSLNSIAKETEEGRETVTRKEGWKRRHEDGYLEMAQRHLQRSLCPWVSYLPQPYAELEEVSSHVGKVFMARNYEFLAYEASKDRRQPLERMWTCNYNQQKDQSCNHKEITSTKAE

B1: AD-DAO (D-amino acid oxidase N-terminally tagged with the activation domain) (enzyme)
chain: not shown
notes: D-amino acid oxidase (DAO), full-length cDNA of 1044 bp, GI:30524341; The AD fusion was detected with anti-HA; source: yeast two-hybrid fusion, S. cerevisiae AH109; not shown: from the vector pGADT7), N-terminal, kept
B2: DAO-6H (recombinant D-amino acid oxidase with C-terminal (His)6) (enzyme)
chain: not shown
notes: D-amino acid oxidase (DAO), cDNA amplified with DAO-F'-NdeI/DAO-R'-XhoI (the primers of the full-length 1044 bp cDNA, GI:30524341), in pET23a(+); Detected in the pull-down with anti-His-tag; also called recombinant DAO; source: E. coli BL21(DE3)pLysS, purified (HisTrap FF); not shown: His6, C-terminal, kept
B3: N-terminally biotinylated G72(138-153) peptide (peptide, UniProt P59103 138-153, looked up)
peptide: Biotin-KDQSCNHKEITSTKAE
B4: N-terminally biotinylated G72(123-153) peptide (peptide, UniProt P59103 123-153, looked up)
peptide: Biotin-RQPLERMWTCNYNQQKDQSCNHKEITSTKAE
modifications: cysteine pairing not given here

Tests used:
[1] = biological target: T1, BD-G72 (full-length G72 N-terminally …); assay: two-hybrid; β-galactosidase activity of AH109 transformants grown in SD/-2 broth at 30 °C, normalised to yeast with the AD and BD tags alone; settings: partners not purified
[2] = biological target: B3; assay: pull-down; 10 μg biotinylated G72 peptide on streptavidin Sepharose beads, 10 μg DAO-6H in phosphate-buffered saline, 4 °C, 3 h, ten washes; DAO detected by Western blotting (anti-His-tag); beads alone as control; settings: both partners purified
[3] = biological target: B4; assay: as above; settings: both partners purified
[4] = biological target: B2; assay: cell-based or functional assay

B1 was tested, and the “relative interaction strength by β-galactosidase activity (AD tag with BD tag = 1)” value [1] was 5.7 fold.

In the case of B2, the “relative amount of DAO pulled down (against beads alone)” value [2] is reported as 2.17 fold and the “relative amount of DAO pulled down (against beads alone)” value [3] is reported as 1.38 fold.

B3 was tested, and the “initial velocity (V0) of DAO activity (400 nM DAO-6H, 40 mM D-alanine, 25 °C) with 0, 1, 3, 10 μM G72(138-153); V0 at 10 μM, fold of DAO alone in parentheses” value [4] was 2.94 mol hydrogen peroxide produced/min/g DAO.

For B4, the “initial velocity (V0) of DAO activity (400 nM DAO-6H, 40 mM D-alanine, 25 °C) with 0, 1, 3, 10 μM G72(123-153); V0 at 10 μM, fold of DAO alone in parentheses” value [4] was 2.71 mol hydrogen peroxide produced/min/g DAO.
